Starred links: 1 amine or outer side, 2 acyl side, 3 side chain; linkers in the order of their positions; H or OH if unused. Positions of bridges follow the written chain, without caps; N, C: chain ends. Non-standard residues stand in square brackets, D forms with d. Primed or numbered codes have the meaning given here. No end group written: not given here. Dab(acetyl)″ = 2-amino-4-(acetylamino)butanoic acid, acetyl CH3 carbon bonded to the S of Hcy (S-CH2-C(=O)-NH-), O=C(C[*:3])NCC[C@H](N[*:1])C(=O)[*:2]; Dab(acetyl) = 2-amino-4-acetylamino-butanoic acid residue (N-γ-acetyl-diaminobutyric acid), CC(=O)NCC[C@H](N[*:1])C(=O)[*:2]; Orn(acetyl)″ = N-delta-acetyl-ornithine, acetyl CH3 carbon bonded to the S of Hcy, O=C(C[*:3])NCCC[C@H](N[*:1])C(=O)[*:2]; Lys(acetyl) = N-epsilon-acetyl-lysine, acetyl CH3 carbon bonded to the S of Hcy, O=C(C[*:3])NCCCC[C@H](N[*:1])C(=O)[*:2]; Dab(acetyl)(3) = 2-amino-4-(acetylamino)butanoic acid (Dab with N-γ-acetyl), CC(=O)NCC[C@H](N[*:1])C(=O)[*:2]; Dap(acetyl) = 2-amino-3-acetylamino-propanoic acid residue, CC(=O)NC[C@H](N[*:1])C(=O)[*:2]; Orn(acetyl) = N-δ-acetyl-ornithine residue, CC(=O)NCCC[C@H](N[*:1])C(=O)[*:2]; COCH2 = acetyl group that carries the bridge; hCys = N[C@@H](CCS)C(=O)O; Dab = NCC[C@H](N)C(=O)O

The assay has as its target T1, human integrin αvβ5 (human, UniProt P06756 31-992; P18084 24-719, limits assumed).
T1 construct: Heterodimer flowed as analyte at 30, 100, 300 and 1,000 nM in HEPES buffer with 5 mM MgCl2
The experiment in a line: SPR, Biacore 3000, peptide immobilised; A = KD 50 nM or less. On the procedure: However, only for the cyclic peptides 125, 126, and 127, in which the number of lysine residues having an amino group as the immobilizing functional group was zero, the amount of the sample solution to be supplied to the sensor chip was set to 500 μL instead of 20 μL. Further, 70 μL of the mixed aqueous solution of 0.2 M EDC and 0.04 M NHS was added to another flow channel of the same sensor chip without immobilizing the sample, and then blocking treatment and washing treatment were carried out. Hereinafter, the obtained immobilization-treated sensor chip is referred to as an “immobilization-treated sensor chip A”.
After adding human integrin αvβ5 for 10 minutes at 25° C., which was diluted to 30 nM using a HEPES buffer solution to which magnesium chloride was added to 5 mM, in each flow channel of the immobilization-treated sensor chip A prepared in (1) above, the same HEPES buffer solution (containing 5 mM magnesium chloride) was allowed to flow as a running buffer for 30 minutes, and measurement was carried out with Biacore 3000. Then, a regeneration treatment of removing human integrin αvβ5 was carried out by allowing a 0.5 M EDTA aqueous solution to flow through each flow channel for 10 minutes. Further, the above-described measurement process consisting of adding integrin for 10 minutes, allowing a running buffer to flow for 30 minutes, carrying out measurement with Biacore 3000, and carrying out regeneration treatment with 0.5 M EDTA aqueous solution was carried out in the same manner for 100 nM human integrin αvβ5, 300 nM human integrin αvβ5, and 1,000 nM human integrin αvβ5. Dissociation constant between the cyclic peptide and human integrin αvβ5 was calculated from the difference between the value measured by Biacore 3000 in the flow channel immobilized with the cyclic peptide and the value measured by Biacore 3000 in the flow channel unimmobilized with the cyclic peptide, in a case where each concentration of human integrin αvβ5 was allowed to flow, and the integrin binding property was evaluated according to the following evaluation standards. It is preferable that the evaluation result satisfies the evaluation standard A, B, or C.
For orientation: Surface plasmon resonance follows binding to a sensor surface in real time, without labels.

T1 sequence (P06756 31-992 limits assumed, chain 1 of 2): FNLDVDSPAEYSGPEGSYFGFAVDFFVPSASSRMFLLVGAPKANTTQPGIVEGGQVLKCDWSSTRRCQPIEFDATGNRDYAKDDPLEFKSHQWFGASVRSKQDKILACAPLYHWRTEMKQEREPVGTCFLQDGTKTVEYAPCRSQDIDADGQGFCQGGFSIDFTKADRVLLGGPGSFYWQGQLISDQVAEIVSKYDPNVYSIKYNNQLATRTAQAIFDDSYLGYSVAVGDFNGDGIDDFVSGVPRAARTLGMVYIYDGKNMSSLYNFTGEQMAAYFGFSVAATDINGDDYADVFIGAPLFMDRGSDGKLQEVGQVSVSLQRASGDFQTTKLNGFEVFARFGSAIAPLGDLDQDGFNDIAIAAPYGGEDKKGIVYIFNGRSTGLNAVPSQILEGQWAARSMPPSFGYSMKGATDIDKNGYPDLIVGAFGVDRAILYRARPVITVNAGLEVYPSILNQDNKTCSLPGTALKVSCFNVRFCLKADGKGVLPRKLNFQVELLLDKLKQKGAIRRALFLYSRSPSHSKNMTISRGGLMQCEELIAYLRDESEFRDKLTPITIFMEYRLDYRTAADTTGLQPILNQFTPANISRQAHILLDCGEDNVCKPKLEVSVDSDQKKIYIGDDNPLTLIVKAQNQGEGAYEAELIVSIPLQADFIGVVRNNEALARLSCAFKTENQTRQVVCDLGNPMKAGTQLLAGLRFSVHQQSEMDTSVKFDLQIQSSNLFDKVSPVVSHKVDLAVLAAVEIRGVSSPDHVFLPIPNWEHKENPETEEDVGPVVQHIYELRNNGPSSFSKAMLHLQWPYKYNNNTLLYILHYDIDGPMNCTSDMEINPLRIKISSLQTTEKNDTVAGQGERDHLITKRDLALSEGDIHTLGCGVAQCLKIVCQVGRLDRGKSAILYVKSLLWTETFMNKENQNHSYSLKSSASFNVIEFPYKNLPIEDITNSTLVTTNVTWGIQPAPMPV
T1 sequence (P18084 24-719 limits assumed, chain 2 of 2): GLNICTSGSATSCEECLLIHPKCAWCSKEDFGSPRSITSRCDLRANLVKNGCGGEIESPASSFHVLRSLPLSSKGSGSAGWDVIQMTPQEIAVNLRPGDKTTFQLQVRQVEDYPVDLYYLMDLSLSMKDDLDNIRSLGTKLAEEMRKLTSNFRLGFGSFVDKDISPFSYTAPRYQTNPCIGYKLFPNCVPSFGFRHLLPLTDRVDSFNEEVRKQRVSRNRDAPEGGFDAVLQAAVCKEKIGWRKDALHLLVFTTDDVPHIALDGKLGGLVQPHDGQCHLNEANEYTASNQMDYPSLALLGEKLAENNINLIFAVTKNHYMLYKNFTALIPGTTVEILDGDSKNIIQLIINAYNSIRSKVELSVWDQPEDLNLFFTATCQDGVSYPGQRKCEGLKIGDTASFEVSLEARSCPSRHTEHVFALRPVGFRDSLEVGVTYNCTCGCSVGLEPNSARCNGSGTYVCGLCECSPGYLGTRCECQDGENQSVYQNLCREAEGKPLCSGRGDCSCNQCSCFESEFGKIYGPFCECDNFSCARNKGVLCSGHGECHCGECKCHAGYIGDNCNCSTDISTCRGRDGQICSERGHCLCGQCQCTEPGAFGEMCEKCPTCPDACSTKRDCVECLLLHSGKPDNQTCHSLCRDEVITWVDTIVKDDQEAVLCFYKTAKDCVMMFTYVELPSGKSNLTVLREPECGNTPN

B1: Cyclic peptide 58 (peptide)
peptide: KKKG[hCys]IPRGDTF[Dab(acetyl)″]A
modifications: thioether 5-13
As to B1, the “dissociation constant (KD)” value was no more than 50 nM.

B2: Cyclic peptide 125 (peptide)
peptide: AXVPRGDTFAXA
modifications: not fully specified; A-(Hcy)-VPRGDTFA(Dab(acetyl))A; thioether bond Hcy-Dab(acetyl)
notes: no lysine
For the molecule B2, the dissociation constant is no more than 50 nM.

B3: Cyclic peptide 118 (peptide)
peptide: KKKG[Dab(acetyl)″]IPRGDTFR[hCys]A
modifications: thioether 5-14
In the case of B3, the dissociation constant was no more than 50 nM.

B4: Cyclic peptide 67 (peptide)
peptide: KKKG[hCys]AIPRGDTFRA[Dab(acetyl)″]A
modifications: thioether 5-16
Regarding B4, the dissociation constant is no more than 50 nM.

B5: Cyclic peptide 139 (peptide)
peptide: KKKG[Orn(acetyl)]IPRGDTFRCA
modifications: thioether 5-14
Molecule B5 gave a dissociation constant of no more than 50 nM.

B6: Cyclic peptide 3 (peptide)
peptide: KKK[hCys]IPRGDNFR[Dab](COCH2)A
modifications: thioether 4-13
With B6, the “dissociation constant (KD)” value is no more than 50 nM.

B7: Cyclic peptide 21 (peptide)
peptide: KKK[hCys]VPRGDNFR[Dab](COCH2)A
modifications: thioether 4-13
Turning to B7, the “dissociation constant (KD)” value is no more than 50 nM.

B8: Cyclic peptide 23 (peptide)
peptide: KKK[hCys]EPRGDNFR[Dab](COCH2)A
modifications: thioether 4-13
Regarding B8, the “dissociation constant (KD)” value was no more than 50 nM.

B9: Cyclic peptide 57 (peptide)
peptide: KKK[hCys]IPRGDTFR[Dab(acetyl)″]A
modifications: thioether 4-13
Consider B9, for which the “dissociation constant (KD)” value is no more than 50 nM.

B10: Cyclic peptide 5 (peptide)
peptide: KKK[hCys]IPRGDNFR[Dab(acetyl)″]D
modifications: thioether 4-13
On to B10, for which the “dissociation constant (KD)” value was no more than 50 nM.

B11: Cyclic peptide 24 (peptide)
peptide: KKK[hCys]YPRGDNFR[Dab](COCH2)A
modifications: thioether 4-13
For B11, the “dissociation constant (KD)” value was no more than 50 nM.

B12: Cyclic peptide 4 (peptide)
peptide: KKK[hCys]IPRGDNFR[Dab](COCH2)G
modifications: thioether 4-13
Regarding B12, the “dissociation constant (KD)” value was no more than 50 nM.

B13: Cyclic peptide 116 (peptide)
peptide: KKKG[hCys]IPRGDTFR[Lys(acetyl)]A
modifications: thioether 5-14
The molecule B13 had a dissociation constant of no more than 50 nM.

B14: Cyclic peptide 132 (peptide)
peptide: KKKGXIPRGDTFRXA
modifications: not fully specified; KKKG(Dap(acetyl))IPRGDTFR-(Pen)-A; thioether bond Dap(acetyl)-Pen
As to B14, the dissociation constant was no more than 50 nM.

B15: Cyclic peptide 128 (peptide)
peptide: KKKGXIPRGDTFRXA
modifications: not fully specified; KKKG-(Pen)-IPRGDTFR(Dap(acetyl))A; thioether bond Pen-Dap(acetyl)
The molecule B15 had a dissociation constant of no more than 50 nM.

B16: Cyclic peptide 112 (peptide)
peptide: KKKKKKA[hCys]VPRGDTFA[Dab(acetyl)″]A
modifications: thioether 8-17
Turning to B16, the dissociation constant was no more than 50 nM.

B17: Cyclic peptide 134 (peptide)
peptide: KKKGXIPRGDTFRXA
modifications: not fully specified; KKKG(Orn(acetyl))IPRGDTFR-(Pen)-A; thioether bond Orn(acetyl)-Pen
B17 had a dissociation constant of no more than 50 nM.

B18: Cyclic peptide 110 (peptide)
peptide: KKKKA[hCys]VPRGDTFA[Dab(acetyl)(3)]A
modifications: thioether 6-15
Consider B18, for which the dissociation constant is no more than 50 nM.

B19: Cyclic peptide 111 (peptide)
peptide: KKKKKA[hCys]VPRGDTFA[Dab(acetyl)″]A
modifications: thioether 7-16
Consider B19, for which the dissociation constant is no more than 50 nM.

B20: Cyclic peptide 130 (peptide)
peptide: KKKGXIPRGDTFRXA
modifications: not fully specified; KKKG-(Pen)-IPRGDTFR(Orn(acetyl))A; thioether bond Pen-Orn(acetyl)
In turn, B20 came in with a dissociation constant of no more than 50 nM.

B21: Cyclic peptide 48 (peptide)
peptide: KKKA[Dap(acetyl)]EPRGDNYR[hCys]D
modifications: thioether 5-14
Regarding B21, the “dissociation constant (KD)” value was no more than 50 nM.

B22: Cyclic peptide 115 (peptide)
peptide: KKKG[hCys]IPRGDTFR[Orn(acetyl)″]A
modifications: thioether 5-14
B22 displayed a dissociation constant of no more than 50 nM.

B23: Cyclic peptide 13 (peptide)
peptide: KKKXIPRGDNFX
modifications: not fully specified; KKK-(Hcy)-IPRGDNF(Dab(acetyl)); thioether bond Hcy-Dab(acetyl)
On to B23, for which the “dissociation constant (KD)” value is no more than 50 nM.

B24: Cyclic peptide 14 (peptide)
peptide: KKK[hCys]VPRGDNF[Dab(acetyl)]
modifications: thioether 4-12
For the molecule B24, the “dissociation constant (KD)” value is no more than 50 nM.

B25: Cyclic peptide 66 (peptide)
peptide: KKK[hCys]VPRGDVF[Dab(acetyl)″]
modifications: thioether 4-12
B25 showed a dissociation constant of no more than 50 nM.

B26: Cyclic peptide 63 (peptide)
peptide: KKK[hCys]IPRGDTF[Dab(acetyl)″]
modifications: thioether 4-12
In turn, B26 gave a dissociation constant of no more than 50 nM.

B27: Cyclic peptide 64 (peptide)
peptide: KKK[hCys]VPRGDTF[Dab(acetyl)″]
modifications: thioether 4-12
Regarding B27, the dissociation constant is no more than 50 nM.

B28: Cyclic peptide 19 (peptide)
peptide: KKK[hCys]IPRGDNFRAA[Dab](COCH2)A
modifications: thioether 4-15
Consider B28, for which the “dissociation constant (KD)” value was no more than 50 nM.

B29: Cyclic peptide 114 (peptide)
peptide: KKKG[hCys]IPRGDTFR[Dap(acetyl)]A
modifications: thioether 5-14
B29 had a dissociation constant of no more than 50 nM.

B30: Cyclic peptide 119 (peptide)
peptide: KKKGXIPRGDTFRXA
modifications: not fully specified; KKKG(Orn(acetyl))IPRGDTFR-(Hcy)-A; thioether bond Orn(acetyl)-Hcy
B30 gave a dissociation constant of no more than 50 nM.

B31: Cyclic peptide 126 (peptide)
peptide: AXIPRGDSFAXA
modifications: not fully specified; A-(Hcy)-IPRGDSFA(Dab(acetyl))A; thioether bond Hcy-Dab(acetyl)
notes: no lysine
B31 showed a dissociation constant of no more than 50 nM.

B32: Cyclic peptide 127 (peptide)
peptide: AXIPRGDSFAXG
modifications: not fully specified; A-(Hcy)-IPRGDSFA(Dab(acetyl))G; thioether bond Hcy-Dab(acetyl)
notes: no lysine
For B32, the dissociation constant was no more than 50 nM.

B33: Cyclic peptide 117 (peptide)
peptide: KKKG[Dap(acetyl)]IPRGDTFR[hCys]A
modifications: thioether 5-14
In the case of B33, the dissociation constant is no more than 50 nM.

B34: Cyclic peptide 30 (peptide)
peptide: KKKA[hCys]IPRGDNYR[Dab](COCH2)D
modifications: thioether 5-14
On to B34, for which the “dissociation constant (KD)” value was no more than 50 nM.

B35: Cyclic peptide 34 (peptide)
peptide: KKKA[hCys]EPRGDNFR[Dab](COCH2)D
modifications: thioether 5-14
As to B35, the “dissociation constant (KD)” value was no more than 50 nM.

B36: Cyclic peptide 32 (peptide)
peptide: KKKA[hCys]YPRGDNYR[Dab](COCH2)D
modifications: thioether 5-14
B36: the “dissociation constant (KD)” value was no more than 50 nM.

B37: Cyclic peptide 39 (peptide)
peptide: KKKE[hCys]EPRGDNYR[Dab](COCH2)D
modifications: thioether 5-14
On to B37, for which the “dissociation constant (KD)” value is no more than 50 nM.

B38: Cyclic peptide 31 (peptide)
peptide: KKKA[hCys]LPRGDNYR[Dab](COCH2)D
modifications: thioether 5-14
Consider B38, for which the “dissociation constant (KD)” value is no more than 50 nM.

These data come from US20220089647A1 (FUJIFILM, published 2022).
